According to paper PMC6780499, “Characterization, Recombinant Production and Structure-Function Analysis of NvCI, A Picomolar Metallocarboxypeptidase Inhibitor from the Marine Snail Nerita versicolor” (Marine Drugs, 2019):
Where two headings read alike, the source gives them in different places. Values belong to the molecule of their own block, whether it stands above or below them. No end group written: not given here.

What was measured:
[1] = test system: HepG2 cells; experiment: Cytotoxicity, XTT assay; format: cell-based, human; conditions: 72 h incubation, 2 to 250 µg/ml, three independent experiments
Method: Cytotoxicity effect of NvCI was tested in a cell culture system using the human hepatocyte cell line HepG2 (American Type Culture Collection (ATCC)). The cells were grown in Dulbecco’s modified Eagle’s medium (DMEM) medium supplemented with 10% (v/v) heat inactivated fetal bovine serum, 2 mM glutamine (Life Technologies Inc.), in a highly humidified atmosphere of 90% air with 10% CO2 at 37 °C. Growth inhibitory effect was measured by the microculture tetrazolium [2,3-bis-(2-methoxy-4-nitro-5-sulfophenyl)-2H-tetrazolium-5-carboxanilide, XTT] assay. Following the addition of different inhibitor concentrations to quadruplicate wells, plates were incubated at 37 °C for 72 h. Aliquots of 20 µl of XTT solution were then added to each well. After 3 h, the color formed was quantitated by a spectrophotometric plate reader (PerkinElmer Victor3 V) at a wavelength of 490 nm. Cell viability was expressed as a percentage of the control level.
Cell viability of HepG2 cells after 72 h incubation with NvCI at various concentrations (2 to 250 µg/ml). Untreated cells were used as controls. Data represent the mean and standard error of the mean (SEM) of three independent experiments.

[2] = biological target: T1, bCPA1 (Bos taurus, UniProt P00730); experiment: Ki determination, tight-binding inhibition of metallocarboxypeptidase; format: biochemical, bovine
T1 sequence (P00730 111-419): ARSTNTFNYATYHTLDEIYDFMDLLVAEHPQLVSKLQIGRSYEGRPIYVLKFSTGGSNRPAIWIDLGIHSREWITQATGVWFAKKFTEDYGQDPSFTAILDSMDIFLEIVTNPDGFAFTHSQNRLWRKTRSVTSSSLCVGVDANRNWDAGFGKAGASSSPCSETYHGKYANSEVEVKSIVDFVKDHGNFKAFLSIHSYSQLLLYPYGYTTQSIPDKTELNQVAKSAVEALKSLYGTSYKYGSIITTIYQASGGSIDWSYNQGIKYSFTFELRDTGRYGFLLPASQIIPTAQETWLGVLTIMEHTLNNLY
Method: Inhibitory activities against CPA- and CPB-type forms (bovine and human variants of CPA1, CPA2, CPA4, CPB1, and TAFI) were assayed for all extracts, subject to the experimental conditions that enzyme (E), substrate (S) and inhibitor (I) concentrations as well as the [I]/[E] ratio and preincubation time followed the requirements for tight-binding inhibitor assays. Similar approaches were followed to measure the activities of proteases of different catalytic types, like pepsin, papain, trypsin and subtilisin [45, 46, 47, 48]. All assays were performed in triplicate at 25 °C in a multiplexed manner. For 96-well assays an iEMS spectrophotometer reader/dispenser FM (Labsystems, Finland) was used with a final reaction volume of 250 μL. For cuvette assays, a Cary 400 Bio spectrophotometer (Varian Inc., Palo Alto, CA, USA) spectrophotometer was used with a final reaction volume of 1 ml. The reactions were followed at 5 s intervals for 5 min and recorded as initial velocities. In the protease inhibition assays, mixtures of activity buffer, biological sample and enzyme were preincubated at 25 °C for 10min, before substrate addition. The assay conditions were as follows: for CPA-like enzymes, 7.0nM CPA, 0.1mM AAFP substrate in 20mM Tris-HCl pH 7.5, 500mMNaCl, 1% v/v dimethyl sulfoxide (DMSO), 0.05% w/v BRIJ-35 was used. For CPB-like enzymes, CPB 3.0nM CPB, 0.1mM AAFA substrate and activity buffer of 20 mM Tris-HCl pH [50].
The Ki values of natural and recombinant NvCI against bCPA1, hCPA1, hCPA2, rat CPA3, hCPA4, hCPB1, bTAFI, hTAFI, hCPD and hCPZ were determined by measuring the enzymatic residual activity (Vi/V0 = a) at different inhibitor concentrations and using a fixed enzyme and substrate concentrations as described above, where vi and v0 are the fraction of enzymatic activity in the presence and absence of inhibitor, respectively, in terms of initial velocities. The determination of Ki values was carried out on equilibrium conditions ([E0]/Ki ≤ 10), using a previously determined preincubation time of 15 min, required to establish enzyme-inhibitor equilibrium. Working temperature was 37 °C. The best estimates of Ki values were obtained by fitting the experimental data to the equation for tight-binding inhibitors by non-linear regression using the GraphPad Prisma 5 software (GraphPad Software, Inc., San Diego, CA, USA) at p < 0.05. The real Ki values against each of these A/B-type MCPs were calculated according to the equation described by Morrison and Copeland [19, 20].

[3] = biological target: T2, bTAFI (Bos taurus (Bovine), UniProt Q2KIG3); experiment: Ki, residual activity
T2 chain: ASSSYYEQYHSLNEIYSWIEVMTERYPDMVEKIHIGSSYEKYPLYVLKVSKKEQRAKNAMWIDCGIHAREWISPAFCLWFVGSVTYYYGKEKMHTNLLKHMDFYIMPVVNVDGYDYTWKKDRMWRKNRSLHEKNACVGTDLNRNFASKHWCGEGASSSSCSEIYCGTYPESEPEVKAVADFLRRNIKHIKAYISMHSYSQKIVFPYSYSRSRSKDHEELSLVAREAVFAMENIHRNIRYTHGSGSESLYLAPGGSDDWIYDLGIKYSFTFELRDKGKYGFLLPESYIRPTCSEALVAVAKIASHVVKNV

- Ki ([2]; natural isoforms, apparent Ki, without correction by competing assays, read-out: derived Ki towards bCPA (apparent Ki values)): 0.027 ± 0.002 nM
- Ki ([2]; tight-binding equation fit, equilibrium conditions, substrate AAFP 0.1mM, 20mM Tris-HCl pH 7.5, 500mM NaCl, preincubation 15 min, 37 °C, means (n = 3) ± SD, read-out: Ki): 0.0096 ± 0.0014 nM
Molecule: NvCI: 53-residue, three-disulphide proteinaceous metallocarboxypeptidase inhibitor from the marine snail Nerita versicolor; major isoform; UniProt P86912 (FHVPDDRPCINPGRCPLVPDATCTFVCKAADNDFGYECQHVWTFEGQRVGCYA; disulfide (positions not given here); also: three disulphides, pairing not given here; UniProt P86912 1-53, looked up)
- cytotoxicity / cell viability [1]: None of the NvCI concentrations assayed exhibited substantial cytotoxicity

- Kd [3]: 0.0841 nM
B1: NvCI (protein)
chain: FHVPDDRPCINPGRCPLVPDATCTFVCKAADNDFGYECQHVWTFEGQRVGCYA
modifications: disulfide (positions not given here); not fully specified (bridges); ends not checked
